# Measurements: the DeepSol protein solubility set
# Experiment: soluble on expression in E. coli; label from the status in PepcDB or PDB records
row,Sequence,soluble on expression in E. coli
1,QALASDSEEADEVPEWLREGEFVTVGAHKTGVVRYVGPADFQEGTWVGVELDLPSGKNDGSIGGKQYFRCNPGYGLLVRPSRVRRAT,soluble
2,QAMLIGEIMDLNLKNFLEDREEIIRDAKRKDEKSFKDFKKIVEEIKERENKDKIVCDFTEYNPLHKGHKYALEKGKEHGIFISVLPGPLERSGRGIPYFLNRYIRAEMAIRAGADIVVEGPPMGIMGSGQYMRCLIKMFYSLGAEIIPRGYIPEKTMEKVIDCINKGYHIQVKPYKIICIETGEILGEKLNIDNYVIASMSQMIYKLNREGLKFNPKFVFVKRLEGISGTKIREAIFSGKFEDIKNMLPKTTLSILKELYDNGKLNELILKRFEDRILETANEYDLYEYLPSNVAEILEKKRPFNNIEEIKNSLPYGFSRHFRERILSKLEARIPNETLSKYINNYPAKIKILAVKL,soluble
3,QAPGWLKEMRGEHAPETEEYGIASTAYRARRPFHPQRFFDLINRPWTNGKLLRSKGFFWLASKYKDAGSWSQAGGLMRHGFAGRWWRFVTRDSWPQDKESVASILENWSSETGDCRQELVFIGQNIDFTLLTAELDNCLLTDDEMAAGAERWRQLSDPFGEWYEDEVAA,not soluble
4,QCSSEVTARYKATLLKGNSLTDLTGGFGIDCAFLAARFKSATYVERQQELCEIAAHNFPILNLNHINVKNEDGVSYLQAMSPVDCIFLDPARRNEHGGKTVAISDCEPDVAELEELLLNKAEQVMVKLSPM,not soluble
5,QDFAEIYARFSDERANEQANRCSQCGVPFCQVHCPVSNNIPDWLKLTSEGRLEEAYEVSQATNNFPEICGRICPQDRLCEGNCVIEQSTHGAVTIGSVEKYINDTAWDQGWVKPRTPSRELGLSVGVIGAGPAGLAAAEELRAKGYEVHVYDRYDRMGGLLVYGIPGFKLEKSVVERRVKLLADAGVIYHPNFEVGRDASLPELRRKHVAVLVATGVYKARDIKAPGSGLGNIVAALDYLTTSNKVSLGDTVEAYENGSLNAAGKHVVVLGGGDTAMDCVRTAIRQGATSVKCLYRRDRKNMPGSQREVAHAEEEGVEFIWQAAPEGFTGDTVVTGVRAVRIHLGVADATGRQTPQVIEGSEFTVQADLVIKALGFEPEDLPNAFDEPELKVTRWGTLLVDHRTKMTNMDGVFAAGDIVRGASLVVWAIRDGRDAAEGIHAYAKAKAEAPVAVAAE,soluble
6,QDLARIEQFLDALWLEKNLAENTLNAYRRDLSMMVEWLHHRGLTLATAQSDDLQALLAERLEGGYKATSSARLLSAVRRLFQYLYREKFREDDPSAHLASPKLPQRLPKDLSEAQVERLLQAPLIDQPLELRDKAMLEVLYATGLRVSELVGLTMSDISLRQGVVRVIGKGNKERLVPLGEEAVYWLETYLEHGRPWLLNGVSIDVLFPSQRAQQMTRQTFWHRIKHYAVLAGIDSEKLSPHVLRHAFATHLLNHGADLRVVQMLLGHSDLSTTQIYTHVATERLRQLHQ,soluble
7,QDSTSDLIPAPPLSKVPLQQNFQDNQFHGKWYQVGRAGNAALREDKDPQKMTAQIYELKEDKSYNVTAVRFRKKKCDYATMTFVPGSQPGEFTLGNIKSYPGLTSYLVRVVSTNYNQHAMVFFKKVSQNREYFSITLLGRTKELASELKENFIRFSKSLGLPENHIVFPVPIDQCIDGSAHHHHHH,soluble
8,QEDVTVKSVTLITKVFPEGEKVCAVVIEYPVEIDGQKLSPDQFSVKVKTGDTYSSRTITKVYANNSGGLSFSIFNNRGKYVVLELSTEDLHSNTIVFGPNFLNTRMKLDYIVSQLVPIFDVDGNEVEPFTSKQTDEKHLIIDDFLAFTFKDPETGVEIPYRLFVPKDVNPDRKYPLVVFLHGAGERGTDNYLQVAGNRGAVVWAQPRYQVVHPCFVLAPQCPPNSSWSTLFTDRENPFNPEKPLLAVIKIIRKLLDEYNIDENRIYITGLSMGGYGTWTAIMEFPELFAAAIPICGGGDVSKVERIKDIPIWVFHAEDDPVVPVENSRVLVKKLAEIGGKVRYTEYEKGFMEKHGWDPHGSWIPTYENQEAIEWLFEQSR,soluble
9,QEQLVESGGRLVTPGTALTLTCKVSGFSLSGFWLNWVRQAPGKGLEWVGAIYRGSGSEWYASWAKGRFTISDTSTTVTLKLTSPTTEDTATYFCAADTTDNGYFTIWGPGTLVTVSSASTKGPSVFPLAPSAKSTSGGTAALGCLVKDYFPEPVTVSWNSGALTSGVHTFPAVLQSSGLYSLSSVVTVPSSSLGTQTYICNVNHKPSNTKVDKKAEPKSCDKTRGHHHHHH,soluble
10,QFWDLNAKLVDIPTKMRVERWAFNFSELIRDPKGRQSFQHFLRKEFSGENLGFWEACEDLKYGDQSKVKEKAEEIYKLFLAPGARRWINIDGKTMDITVKGLKHPHRYVLDAAQTHIYMLMKKDSYARYLKSPIYKEMLAKAIEPQG,soluble
11,QGMNNPADAGINLNYLANVRPSSRQLAWQRMEMYAFLHFGMNTMTDREWGLGHEDPALFNPRNVDVDQWMDALVAGGMAGVILTCKHHDGFCLWPSRLTRHTVASSPWREGKGDLVREVSESARRHGLKFGVYLSPWDRTEESYGKGKAYDDFYVGQLTELLTQYGPIFSVWLDGANGEGKNGKTQYYDWDRYYNVIRSLQPDAVISVCGPDVRWAGNEAGHVRDNEWSVVPRRLRSAELTMEKSQQEDDASFATTVSSQDDDLGSREAVAGYGDNVCWYPAEVDTSIRPGWFYHQSEDDKVMSADQLFDLWLSAVGGNSSLLLNIPPSPEGLLAEPDVQSLKGLGRRVSEFREALASVRCEARTSSASAAAAHLVDGNRDTFWRPDADDAAPAITLTLPQPTTINAIVIEEAIEHGQRIEHLRVTGALPDGTERVLGQAGTVGYRRILRFDDVEVSSVTLHVDGSRLAPMISRAAAVRI,soluble
12,QILVVRGQVIFPFVPFSLDVGRPRSRKIIKALKTLKTKRLVLVTQKFTGEQNPEFNDIYHVGTLCEIDEIVDVPGVDSKTVDYRIKGRGLQRVLIEKFSDADINEVSYQLLNSTVKDEANVDRFLQRIFPEKEEIEQLMEGAEKFLELENISKTVNVPKGLKQLDIITFKLANLVPNTESIKQAILEENEIANRLEKIIQA,soluble
13,QKKIADRLMKFEEQLPEALDIIKRVLQAGQPITQAFGEVGREVSAPLGPEFLNTFNLLNYGYDLRLAIMQMSERTPTVSMLAFSSAVLLQKETGGNLVENIEKLSHILRARFKLARKIKTISAESRMS,not soluble
14,QLSPDIYAKSCPNLVQIVRKQVAIALKAEIRMAASLIRLHFHDCFVNGCDASLLLDGADSEKLAIPNINSARGFEVIDTIKAAVENACPGVVSCADILTLAARDSVVLSGGPGWRVALGRKDGLVANQNSANNLPSPFEPLDAIIAKFVAVNLNITDVVALSGAHTFGQAKCAVFSNRLFNFTGAGNPDATLETSLLSNLQTVCPLGGNSNITAPLDRSTTDTFDNNYFKNLLEGKGLLSSDQILFSSDLAVNTTKKLVEAYSRSQSLFFRDFTCAMIRMGNISNGASGEVRTNCRVINN,soluble
15,QMAGIYQALANDGQRIEPRIIEKVVDSSGNEVEQQPPAETRVVSAQTARTVVDMFRGVVQKDPTGINSGTGAGAAVDGYQVSGKTGTAQQVDPNTGAYSNSNYWITFAGIAPADNPRFVVALMLDKPHRGVHGEGGQSAAPLFHDIASWILDRDNVPLSPPMEGQLVLQAQ,not soluble
16,QMPQPLAYAQALLAQFASLARAVNGAQLLGDFVRSLAELSGCELSQLYLLDATHKCLKMRAECLDGTLQPREAASLPVDYNGEQLLQFALCQNRVVCLGELSGSLHETSFLPTQSTPWQSLLCVPVVNHQQAVEGLLLCASRRHVDLQGFADSLGQFGSFALGQLNLLQRLHKPADEVRPAGITMPSVSGYG,not soluble
17,QQLSMELESARAFNASVLANVAEGILVVDEAGNISFANPAICQLLNASVDQLRGTQVLDYVIEPQVSSWLESGFYQHYRKADTYRVHDAILRTAQGSQLPVALSCAALPAEQKAMVLTVLDMS,not soluble
18,QRHQKNQNQQRIQALLEESQRRLKQMINKTHVGLLLINEQGQLFDLNPMAKRLFCLPENVNRQTFAWELFDAGNPNSTTLTLLRDLPKHKELAEISAVETMARRSDGSVFPVLFSLTTFPWHGELYFLATLIDISKRKKAEQSLQLINQELAQRVEERTQALRQAQEQLIESSKMAALGRMSSAITHELNQPLTGLRTLLTTNELLAERGETAMMKANNVLVQKLIDRMASMTSQLKTFAYNKPEKLQALSLTSALEETLRVYQSQLANVDVRVRIPSDLPQIQGEEQRLQQVLGNLISNALDAMQSRDNPQLSIVVTPTNSHVEVVVSDNGCGVALEQLDTIFEPFQTSKKIGEGLGLGLSITANNMRDMNGQVTAKRNPGSGMSFLLRFQLANTID,not soluble
